According to patent US20210147541A1:

B1: iCADM3_3R1-L5 VHH-hG4PE(R409K) (Fc fusion, not shown: a dimerising Fc or GST)
chain: QVQLVESGGGLVQAGGSLRLSCAASGSIVSVNAMGWYRQAPGKQRELVATITSGGSTNYADSAKGRFTISRDNAKNTMYLQMNSLKPEDTAVYYCNGEFWSRRDTRPPGVVNYWGQGTQVTVSS
B2: CADM301 scFv-hG4PE (Fc fusion)
VH: QVQLVQSGAEVRRPGTSVKVSCKASGYSFTSYDINWVRLATGQGLEWMGWMNPNTGDTGSPQKFQDRVTMTRDISTGTAYLELRGLKSEDTAIYYCARGFLVTAYTAEFFPHWGQGTLVTVSS
VL: SYVLTQPPSVSVAPGKTARLTCGGNNIGSKSVHWYQQRPGQAPVLVINYDSDRPSGIPERFSGSNSENTATLTISRVEAGDEADYYCQVWDSGSDHVVFGGGTQLIIL
B3: CADM3102 scFv-hG4PE (Fc fusion)
VH: QMQLVQSGAEVKKPGSSVKVSCKASGGTFSSYAISWVRQAPGQGLEWMGGIIPMSGTANYAQKFQGRVTITADESTSTAYMELSSLRSEDTAVYYCARVEESGWYDHYHGMDVWGQGTTVTVSS
VL: DVVMTQSPLSLPVTPGEPASISCTSSQSLLYSNGFNYLDWYLQKPGQSPQLLIYLGSNRASGVPDRFSGSGSGTDFTLKISRVEAEDVGVYYCMQALTTHPTFGGGTKVDIK
B4: anti-AVM antibody (antibody, V domains shown)
VH: EVQLVESGGGLVQPGRSLKLSCAASGFTFSNYAMAWVRRAPTKGLEWVASISNGGGNTYYRDSVKGRFTISRDDAKNTLYLQMDSLRSEDTATYYCARHGNYIYYGSFFDYWGQGVMVTVSS
VL: QFVLSQPNSVSTNLGSTVKLSCKRSTGNIGSNYVSWYQQHEGRSPTTMIYRDDKRPDGVPDRFSGSIDRSSDSALLTINNVQTEDEADYFCQSYSSGINIFGGGTKLTVLG
B5: iCADM3_3R1-L10 VHH-hG4PE(R409K) (Fc fusion, not shown: a dimerising Fc or GST)
chain: QVQLVESGGGLVQAGGSLRLSCAASGSIFSIHAMGWYRQAPGKQRELVATVTSGGSTNYADSVKGRFTISRDNAKNTVYLQMNSLKPEDTAVYYCNAETPYYSSTYYTNYWGQGTQVTVSS
B6: iCADM3_3R1-L8 VHH-hG4PE(R409K) (Fc fusion, not shown: a dimerising Fc or GST)
chain: QVQLVESGGGLVQPGGSLRLSCAASGRTFSNYARGWFRQAPGKEREFVAAIDYSGGSTNYADSAKGRFTISRDNAKNTVYLQMNSLKPGDTAVYYCAAPASRRPSWDADGYDYWGQGTQVTVSS
B7: iCADM3_3R1-L11 VHH-hG4PE(R409K) (Fc fusion, not shown: a dimerising Fc or GST)
chain: QVQLVESGGGLVQAGGSLRLSCAASGSIFSFNAMGWYRQAPGKQRGLVAVITSGGYTNYADSVKGRFTITRDNAKNTVYLQMNSLKPEDTAVYYCNAEGVYSDYVIMNYWGQGTQVTVSS

The binders below were run against monkey CADM3 (cynomolgus monkey) (assay: flow cytometry, 10 ug/mL, monkey CADM3/Expi293F vs parent Expi293F cells).
monkey CADM3 (cynomolgus monkey), sequence (Q8N126 25-398 S206N limits assumed, form in doubt): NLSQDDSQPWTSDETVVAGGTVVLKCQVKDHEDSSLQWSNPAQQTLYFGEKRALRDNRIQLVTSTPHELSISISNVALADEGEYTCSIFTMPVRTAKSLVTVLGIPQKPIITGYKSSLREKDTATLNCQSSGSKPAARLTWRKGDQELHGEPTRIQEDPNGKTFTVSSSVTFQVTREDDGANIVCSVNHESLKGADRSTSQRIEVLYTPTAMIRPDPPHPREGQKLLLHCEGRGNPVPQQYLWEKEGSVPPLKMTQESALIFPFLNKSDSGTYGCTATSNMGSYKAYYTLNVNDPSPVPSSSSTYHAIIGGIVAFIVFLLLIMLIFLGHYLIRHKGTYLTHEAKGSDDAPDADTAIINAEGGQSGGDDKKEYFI

Row | Mean fluorescence intensity ratio | Binder
1 | 26.6 | B1
2 | 5.72 | B2
3 | 51.5 | B3
4 | 1.02 | B4
5 | 36.5 | B5
6 | 6.91 | B6
7 | 35.3 | B7
